Substitutions are numbered along the chain they refer to. Numbers in names are those of the source.
T1: PMA-treated THP-1 cells (endogenously expressed human MSR1) (Homo sapiens, UniProt P21757)
T1 construct: endogenous in cells; host or cells: THP-1 cells differentiated with PMA
T1 sequence (P21757 1-451): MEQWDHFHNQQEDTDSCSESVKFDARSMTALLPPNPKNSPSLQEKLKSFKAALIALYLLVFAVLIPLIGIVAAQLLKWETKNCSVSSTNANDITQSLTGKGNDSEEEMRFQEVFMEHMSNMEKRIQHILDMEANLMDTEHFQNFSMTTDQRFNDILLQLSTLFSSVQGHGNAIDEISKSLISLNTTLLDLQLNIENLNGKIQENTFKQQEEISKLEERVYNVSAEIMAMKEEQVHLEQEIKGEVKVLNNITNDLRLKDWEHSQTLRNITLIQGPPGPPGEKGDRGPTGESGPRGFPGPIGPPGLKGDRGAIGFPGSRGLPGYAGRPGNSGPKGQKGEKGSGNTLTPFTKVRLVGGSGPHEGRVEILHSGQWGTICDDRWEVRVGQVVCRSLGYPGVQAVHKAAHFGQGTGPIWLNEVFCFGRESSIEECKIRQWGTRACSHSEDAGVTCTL

T2: MSR1 on differentiated THP-1 cells (Homo sapiens, UniProt P21757)
T2 construct: endogenous in cells; host or cells: THP-1 cells differentiated with PMA
T2 sequence (P21757 1-451): T1 sequence (P21757 1-451)

B1: H1H27731P-N297Q: one of "Twelve anti-MSR1 antibodies"; "made with an N297Q single point mutation in human Fcγ portion" (antibody, V domains shown)
VH: QLQLQESGPGLVKPSETLSLTCTVSGGSISRISYYWGWIRQPPGKGLEWIGSIYDSGSTYYNPSLKSRVTISIDTSKNQFSLKLSSVTAADTAVYYCVRYSSSSAFAFDYWGQGTLVTVSS
VL: DIQMTQSPSSVSASVGDRVTITCRASQGISSWLAWYQQKPGKAPKLLIYAASSLQSGVPSRFSGSGSGTDFTLTISSLQPEDFATYYCQQANSFPFTFGPGTKVDIKR
B2: H1H27754P-N297Q: one of "Twelve anti-MSR1 antibodies"; "made with an N297Q single point mutation in human Fcγ portion" (antibody, V domains shown)
VH: EVQLVESGGGLVQPGGSLRLSCAASGFTFRTYAMTWVRQAPGKGLDWVSAITGDGGNTYYADSVKGRFTISRDNSKNTLYLQMNSLRAEDTAIYYCAKDQRFSFALYYFDYWGQGTLVTVSS
VL: B1 VL with K42N, S52F, S93N, F96W, P100Q, D105E

Legend:
[1] = molecular target: T1, PMA-treated THP-1 cells (endogenously expressed human MSR1); test: Electrochemiluminescence antibody binding assay on MSR1-expressing cells; assay type: cell-based
[2] = tested on: parental HEK293 cells; test: Electrochemiluminescence antibody binding assay, non-specific binding control cells; assay type: cell-based, human
[3] = tested on: B16F10.9 cells (MSR1 negative); test: Flow cytometry binding, MSR1 negative cells; assay type: cell-based, mouse; conditions: 10 μg/mL antibody
Experimental: Relative cell surface binding of the anti-MSR1 antibodies to mouse MSR1 expressing cells was determined by flow cytometry using MSR1 positive RAW264.7 cells (ATCC, Catalog #TIB-71) and MSR1 negative B16F10.9 cells (Lin et al. 1998. PNAS 95:8829-8834). For the assay, cells were plated in PBS without calcium and magnesium (VWR Cat #45000-446) and 2% FBS (Saradigm Cat #1500-500) (Staining Buffer) in 96 well V-bottom plates (Axygen Scientific, Cat #P-96-450-V-C-S). To block binding to Fc receptors, RAW264.7 cells were incubated for 30 minutes at 4° C. with 500 μg/mL mouse IgG (Jackson ImmunoResearch, Cat #015-000-003) diluted in staining buffer, while B16F10.9 cells remained in staining buffer. Following Fc receptor blocking, 10 μg/mL of anti-MSR1 antibodies or an isotype control antibody were added to the cells and were subsequently incubated for 30 minutes on ice. For a positive control, a commercial anti-mouse MSR1 (Sino Biological, Cat #50129-R004) antibody was used, while a rabbit IgG antibody (Thermo Scientific, Cat #26102) was used as a negative control. […] Cells were subsequently washed and fixed using a 50% solution of Cytofix (BD Biosciences, Cat #554655) diluted in PBS. […] The signal to noise (S/N) was determined by calculating the ratio of the anti-MSR1 antibodies or the control antibodies MFI to the unstained sample MFI (Table 11).

[4] = molecular target: T2, MSR1 on differentiated THP-1 cells; test: Binding and internalization of cell-surface expressed MSR1 in differentiated THP-1 cells; assay type: cell-based; conditions: 10 μg/mL antibody; for Total Binding at 37° C. / Total Internalized RFU: 37° C.
Experimental: Exemplary anti-MSR1 antibodies were assessed for their ability to bind and internalize MSR1 on MSR1-expressing cells.
The THP-1 cells were allowed to differentiate for 4 days at 37° C. in 5% CO2. […] The remaining two plates were incubated at 37° C. for 1 hour followed by fixation and staining for 20 minutes using a solution of 4% PFA+5 μM DRAQ5 diluted in PBS (internalization plates). After fixation, all plates were washed once with PBS. […] The remaining plates were incubated with PBS only. Confocal images were acquired on the Opera Phenix (Perkin Elmer) at 40× magnification. […] The total binding at 4° C. (RFU values of 4° C. unquenched wells), total binding at 37° C. (RFU values of 37° C. unquenched wells), the total internalized RFU, and % Internalization were determined for each antibody as shown in Table 14.
For all calculations, background fluorescence from unstained wells was subtracted from every well. Total internalized RFU was calculated as follows: Total RFU of 37° C. unquenched samples−Surface RFU at 37° C. Surface RFU is defined as unquenched RFU at 37° C.−quenched RFU at 37° C.)/QE. QE (quenching efficiency) is defined as: 1−(Total RFU of 4° C. quenched sample/Total RFU of 4° C. unquenched sample). The % Internalization was determined from the following formula: (Total internalized RFU at 37° C./Total RFU at 37° C.)*100.

| Molecule | Ratio of 11 nM Antibody Binding Signal (RLU) to isotype control, PMA-treated THP-1 [1] | Ratio of 11 nM Antibody Binding Signal (RLU) to isotype control, HEK293 [2] | B16F10.9 MFI [3] | % Internalization [4] [%] | Total Binding at 4° C. [4] | Total Binding at 37° C. [4] | Total Internalized RFU [4] [RFU] |
| --- | --- | --- | --- | --- | --- | --- | --- |
| B1 | 38 | 7 | 3688 | 54.2 | 1215319 | 1802404 | 977543 |
| B2 | 66 | 18 | 4091 | 90.0 | 3077308 | 7161570 | 6446236 |
